Laboratory results taken from IntAct's records for PubMed 12172031.

B1: Coronatine-insensitive protein 1 (Arabidopsis thaliana (Mouse-ear cress)), O04197 (parent)
chain: MEDPDIKRCKLSCVATVDDVIEQVMTYITDPKDRDSASLVCRRWFKIDSETREHVTMALCYTATPDRLSRRFPNLRSLKLKGKPRAAMFNLIPENWGGYVTPWVTEISNNLRQLKSVHFRRMIVSDLDLDRLAKARADDLETLKLDKCSGFTTDGLLSIVTHCRKIKTLLMEESSFSEKDGKWLHELAQHNTSLEVLNFYMTEFAKISPKDLETIARNCRSLVSVKVGDFEILELVGFFKAAANLEEFCGGSLNEDIGMPEKYMNLVFPRKLCRLGLSYMGPNEMPILFPFAAQIRKLDLLYALLETEDHCTLIQKCPNLEVLETRNVIGDRGLEVLAQYCKQLKRLRIERGADEQGMEDEEGLVSQRGLIALAQGCQELEYMAVYVSDITNESLESIGTYLKNLCDFRLVLLDREERITDLPLDNGVRSLLIGCKKLRRFAFYLRQGGLTDLGLSYIGQYSPNVRWMLLGYVGESDEGLMEFSRGCPNLQKLEMRGCCFSERAIAAAVTKLPSLRYLWVQGYRASMTGQDLMQMARPYWNIELIPSRRVPEVNQQGEIREMEHPAHILAYYSLAGQRTDCPTTVRVLKEPI

Variants of: B1
Conditions: with skp1a_arath SKP1A

Row | effect of a mutation on the interaction | Variant
1 | decreasing interaction | E22A

Variants of: B1
Conditions: with skp1b_arath SKP1B

Row | effect of a mutation on the interaction | Variant
2 | decreasing interaction | E22A

Variants of: B1
Conditions: with cul1_arath CUL1, Q94AH6
Sequence of cul1_arath CUL1, Q94AH6 (Q94AH6 whole entry): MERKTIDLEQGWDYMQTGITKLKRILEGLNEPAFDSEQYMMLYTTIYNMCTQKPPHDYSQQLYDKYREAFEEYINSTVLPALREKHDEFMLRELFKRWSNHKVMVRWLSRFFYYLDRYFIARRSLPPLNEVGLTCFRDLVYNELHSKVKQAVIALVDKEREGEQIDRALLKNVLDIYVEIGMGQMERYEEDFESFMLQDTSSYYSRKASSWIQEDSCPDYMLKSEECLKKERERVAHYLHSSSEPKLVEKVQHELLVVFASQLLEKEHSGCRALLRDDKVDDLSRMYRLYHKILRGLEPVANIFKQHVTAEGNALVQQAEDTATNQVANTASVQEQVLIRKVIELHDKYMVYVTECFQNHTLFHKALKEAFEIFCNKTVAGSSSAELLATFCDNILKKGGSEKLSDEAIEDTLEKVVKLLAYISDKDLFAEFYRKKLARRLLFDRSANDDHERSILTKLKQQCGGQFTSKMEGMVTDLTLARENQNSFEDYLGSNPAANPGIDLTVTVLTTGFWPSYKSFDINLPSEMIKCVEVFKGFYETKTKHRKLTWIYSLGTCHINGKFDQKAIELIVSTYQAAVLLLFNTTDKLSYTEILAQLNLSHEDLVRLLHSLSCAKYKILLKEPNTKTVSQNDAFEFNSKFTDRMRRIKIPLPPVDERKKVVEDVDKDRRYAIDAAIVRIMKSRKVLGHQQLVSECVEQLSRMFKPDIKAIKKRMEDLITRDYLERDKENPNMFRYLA

Row | effect of a mutation on the interaction | Variant
3 | decreasing interaction | E22A
